Test results published in US11123408B2, “Compositions and methods for treating nonsteroidal anti-inflammatory drug (NSAID) associated coagulopathy, thrombocytopenia, glanzmann's thrombasthenia, and/or thrombosis” (YALE UNIVERSITY, priority 2011, dated 2021).
Entries after “also recorded” stand apart in the source; their conditions may differ.

What was measured:
[1] = system: platelets in platelet rich plasma; assay: Lumi aggregometry (extracellular ATP, dense granule release) simultaneously with LTA; type: cell-based, human
Protocol: Whole blood from healthy voluntary donors was collected in accordance with an IRB-approved protocol into blue top vacutainer tubes containing 3.2% sodium citrate. Blood was centrifuged at 1000 RPM for 10 minutes at room temperature to collect platelet rich plasma (PRP). PRP in the supernatant was then transferred to fresh tubes, and the remainder of the specimen was centrifuged at 4000 RPM for 10 minutes to obtain platelet poor plasma (PPP). PRP was adjusted to a final platelet count of 250×10^6 platelets/mL with autologous PPP for use in aggregation studies. Potential donors were excluded if there was a history of a bleeding disorder or current anticoagulant use and donors were instructed to avoid NSAIDs for at least 7 days prior to donation. Approval for the human subjects involved in this research was sought and granted by the Committee for the Protection of Human Subjects, Dartmouth-Hitchcock Medical Center, where these studies were conducted in accordance with the Declaration of Helsinki.
Light transmission (i.e., optical) and lumi aggregometry were performed on up to four samples from the same individual simultaneously with a Chrono-Log Model 700 Whole Blood/Optical Lumi Aggregometer (Chrono-Log Corporation, Havertown, Pa.) using procedures provided by the manufacturer that are briefly summarized here.
(§1) Platelet aggregation was determined by measuring the change in light transmittance of stirred PRP over time after addition of various agonists. Prior to each experiment the aggregometer was standardized to reflect 100% and 0% light transmittance with PPP and PRP, respectively, from the donor whose platelets were used in each specific experiment. 500 μL PRP was added to cuvettes containing a magnetic stir bar and allowed to pre-warm to 37° C. in the aggregometer wells for 3 minutes prior to initiating aggregation reactions which were then conducted at 37° C. Aggregation reactions were initiated by direct addition of agonists and/or enzymes to warmed, stirred PRP, and were monitored for an increase in light transmittance for 10 minutes. The increase in light transmittance is directly proportional to the amount of aggregation and is amplified and digitized into a computer (HP Compaq, Hewlett-Packard, Palo Alto, Calif.) with the AGGRO/LINK8 for Windows software (Chrono-Log Corporation, Havertown, Pa.) to generate aggregation curves. […] The platelet aggregometry experiments for all concentrations of MRS 2395 (including the 0 μM point) were conducted with the plasma adjusted to a final concentration of 10% DMSO to solubilize the inhibitor.
In a subgroup of experiments, lumi aggregometry was used to assay the levels of extracellular ATP simultaneously with LTA. Lumi aggregometry measures ATP in the extracellular space over time using a sensitive luminescent assay employing firefly luciferin-luciferase (CHRONO-LUME™ reagent, Chrono-Log Corporation, Havertown, Pa.). ATP binds to luciferin-luciferase and generates light that is then amplified by a high-gain photomultiplier tube in the lumi aggregometer and is measured simultaneously with the optical change in light transmittance caused by platelet aggregation. In experiments in which lumi aggregometry was performed, 450 μL of PRP was transferred to cuvettes containing magnetic stir bars and allowed to pre-warm to 37° C. in the aggregometer wells for 3 minutes. […] Reactions were initiated by the addition of agonists and/or enzymes to warmed PRP and CHRONOLUME′ reagent and were monitored for light generation. […]

[2] = system: platelets exposed to NSAIDs; assay: LTA in platelet-rich plasma from an individual who had consumed ibuprofen; type: cell-based, human; settings: 20 nM NPP4; 3 μM ADP; donor took 800 mg ibuprofen 12 hours before
Protocol: as §1
NPP4 rescues platelets exposed to NSAIDs. […]

B1: NPP4: soluble recombinant extracellular domain of human NPP4 (NCBI AAH18054.1, residues 1-407 of SEQ ID NO:1), expressed in insect cells (protein, listed as Homo sapiens)
chain: MKLLVILLFSGLITGFRSDSSSSLPPKLLLVSFDGFRADYLKNYEFPHLQNFIKEGVLVEHVKNVFITKTFPNHYSIVTGLYEESHGIVANSMYDAVTKKHFSDSNDKDPFWWNEAVPIWVTNQLQENRSSAAAMWPGTDVPIHDTISSYFMNYNSSVSFEERLNNITMWLNNSNPPVTFATLYWEEPDASGHKYGPEDKENMSRVLKKIDDLIGDLVQRLKMLGLWENLNVIITSDHGMTQCSQDRLINLDSCIDHSYYTLIDLSPVAAILPKINRTEVYNKLKNCSPHMNVYLKEDIPNRFYYQHNDRIQPIILVADEGWTIVLNESSQKLGDHGYDNSLPSMHPFLAAHGPAFHKGYKHSTINIVDIYPMMCHILGLKPHPNNGTFGHTKCLLVDQWCINLPEA
- time to granule release ([1]; 100 nM NPP4 with 40 μM Ap3A): ~1.5 min
- platelet aggregation and dense granule (ATP) release, enzyme with Ap3A (qualitative) ([1]; 100 nM enzyme with 40 μM Ap3A): ATP release and platelet aggregation were simultaneously seen; also recorded: strong platelet aggregation and dense granule release
- effect on ADP-induced aggregation of NSAID-exposed platelets [2]: normalization of ADP-induced aggregation
